The supplement of paper PMC12042874
± gives the uncertainty stated by the source.

Assay: amyloid nucleation score (Sup35N fusion, yeast selection) (log enrichment); library NNK2; higher = more nucleation; inactive = no reads after selection
In short: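 Random libraries were run with three technical output replicates. In each, psi-negative yeast expressing Sup35N fused to peptides of 20 random codons were induced 24 hours with 100 μM copper sulfate and grown 7 days at 30°C on medium lacking adenine and uracil, and input and output plasmid inserts were Illumina-sequenced. The nucleation score is the DiMSum log enrichment of output over input reads, centred on the mode score of non-aggregating sequences, and sequences under 100 input reads were excluded.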

Substance	amyloid nucleation score
WYCMNSGASMLCGLRQARFL	-0.715 ± 0.76
WYCRVSMRNLYIFGSIRSAY	5.34 ± 0.086
WYKKATNSVLANVGQDFVVK	-0.41 ± 0.36
WYKRVVFPMP	-0.442 ± 1
YACFRPFSDTRRRCGFSTL	inactive
YADLISSWVILGWFQRKTLF	0.228 ± 1
YAFSMDRWVDLMLFQRV	4.96 ± 0.092
YAGYNISCP	inactive
YAIICKPLDDPLRKGTRWRR	0.477 ± 0.4
YALAAVSRFG	0.22 ± 0.55
YANERNTDFNNRWFLHGIKR	-1.34 ± 1.1
YCCFMSRHGSKWHYVNICIF	inactive
YCGFQYLRWGVTVVNS	0.386 ± 0.19
YCILLLNVVVMCYMMCDGFA	0.635 ± 0.65
YCINGLGIGTELCVFTTKWM	-0.479 ± 0.3
YCMLCQGWDGICLPEVSAVW	0.146 ± 0.29
YCNYVTRDSFAFMSSFFMSA	-1.55 ± 1.1
YCPPFLHNTWAYAKRTGRGS	-0.137 ± 0.61
YCYVSRVFYRMCALAGWMGL	inactive
YDANLRLYSYSRTQLFSSWS	3.83 ± 0.088
YDDHDFNRAGGLTVTNVWMV	3.64 ± 0.1
YDLCGTALTVLGTVIY	1.15 ± 0.27
YDLDEGYSLMFVPQEQICAE	inactive
YDNMC	-0.72 ± 0.35
YDNSYNWTATTFFGSRPDQS	4.55 ± 0.048

Substance	amyloid nucleation score
YEGFM	-0.297 ± 0.56
YEIRWFRGLIK	0.495 ± 0.43
YFDSEPCLHFPCLVEGFRGW	-0.54 ± 1.1
YFFRVSYVEFVRCFGFSCRW	-0.846 ± 0.41
YFIRRKIRMGGHLLTWSWWI	-0.104 ± 0.49
YFNNPLFVEDFWLSYVSMSY	-0.749 ± 0.32
YFPIASALNCSLGCARCCES	0.669 ± 0.74
YFRMNPKFVCTKYSNAEYLS	-0.427 ± 0.64
YFRNDNGLWEINSCRILFIV	inactive
YFSSQLDLRRIMLLLSRYV	0.721 ± 0.54
YFVVL	-1.78 ± 0.62
YFYITTCSGMSTDVFMNLLT	-0.422 ± 1
YGAWRFGRLALSRRPSYCGM	-0.271 ± 0.27
YGDYMFHPETAVSL	4.49 ± 0.064
YGFGRHKNGAAMPTMYFAMS	-0.014 ± 0.41
YGFKGTSLR	-0.506 ± 0.28
YGFSGMMNSFSFHGC	6.07 ± 0.083
YGKIL	-0.956 ± 1
YGPWSCLI	inactive
YGQIITSEKNRRNYMCPFSG	-0.393 ± 1.1
YGSESVGGSQRSGNLSWGTG	0.257 ± 0.64
YGSFIWWLPCNGMGLKCSRS	1.67 ± 0.12
YGSFWTFRFLGT	4.12 ± 0.073
YGTKQVGKNRFFEHSYYYWP	inactive
YGTWKVRKCGLSIFGVGGPD	-0.303 ± 0.63

Substance	amyloid nucleation score
YGYCIISHTLNLLLGQYLCY	4.99 ± 0.068
YHCCFRSKAGFQESQDITIR	-0.18 ± 0.24
YHFFKCRPCSFSWLITGMVK	-0.287 ± 0.63
YHIWRYHATSSHTFARFSSV	1.62 ± 0.51
YHLSELVMRREWSDWYNVCG	0.126 ± 0.43
YHNWSA	0.025 ± 0.23
YHTRIYDL	0.576 ± 0.45
YIAILFYMC	7.2 ± 0.044
YICVFLDSYLGHMYRPHWRV	1.91 ± 0.13
YIGVIT	5.38 ± 0.1
YILSWARFIEYDYLTPRVYS	0.356 ± 0.57
YIRCYRNV	-0.536 ± 0.33
YISMKWEVAHNYWWILSGIP	0.444 ± 0.25
YIVPSKRIWFFGLSSNGDST	0.102 ± 0.41
YIWILWIAMEQNKSWRGQHD	4.44 ± 0.12
YIWYCRMPTSSNTVSNL	inactive
YIYLNEKFCITYMRESWNCC	0.651 ± 0.39
YIYRNITRLQKSCSIIISGR	-1.88 ± 0.64
YIYYNYKGLSVVFLSNSNMW	2.88 ± 0.12
YKAAIGFCINQCLRHHVTKR	inactive
YKDHGCNDSWK	-0.572 ± 0.44
YKEVWY	-0.284 ± 0.45
YKFRYWAYFFSDVAGVI	-1.75 ± 0.75
YKLRSQ	-0.184 ± 0.27
YLCGFNIVPHRYINFRVWTE	4.39 ± 0.11

Substance	amyloid nucleation score
YLGCRDPTRCFLLVHVPDLY	-0.127 ± 1
YLGGMGSICDVNPCLYNRFL	0.655 ± 0.16
YLGLDARLI	0.661 ± 0.8
YLICD	-0.578 ± 0.76
YLLALRCLFLLYRVYWFSIE	-0.129 ± 0.39
YLLLLIMDLFKGRACHPRHA	inactive
YLLMTKCVTVAERMGIMISC	-0.95 ± 1
YLQVWYTREFYIFRGKMDLL	inactive
YLRMDLVKWKWVGDGSQVC	2.86 ± 0.08
YLSGLIIS	-0.593 ± 1.1
YLSGYRLRTVVAVDTGMWYV	2.65 ± 0.13
YLSRWYLKILQVSWRSVHSS	-0.712 ± 0.36
YLTNNLVLWFDICDEERYWW	5.45 ± 0.059
YLVFKYTRGMFLVLCTPIWV	-1.17 ± 0.39
YLWDTIYIDLSVLLVLATSW	0.21 ± 0.54
YLWPALPR	0.142 ± 0.46
YLWWMKSNY	inactive
YLYKCNM	inactive
YMCRVYMSNSINDFDLPHLL	2.06 ± 0.29
YMDMWGR	-0.81 ± 0.41
YMFDFYFVLYESKYAWINPK	inactive
YMFYPNCRSRC	0.59 ± 0.15
YMIYCFITVGCFISTLHYCG	1.68 ± 0.15
YMLTIRFICFGAVGHSDMHE	0.672 ± 0.18
YMLWGWFFLNGFYTVIGIVP	inactive

Substance	amyloid nucleation score
YMRGITHSAGCSSLAINVEH	-1.23 ± 1.1
YMSIHSKAGMVSLDLKCLCT	-0.427 ± 1
YNGLMNISIATMC	-1.17 ± 0.74
YNIIYWFLYKVQAWSVCSWG	5.31 ± 0.077
YNKGNACISGYYGCSLA	7.41 ± 0.083
YNKLGCTARFTRAMWTFCGV	0.066 ± 1
YNKRVSWKYWMWHEYAMRGW	5.21 ± 0.057
YNKWLMASLPRIVGT	-0.47 ± 1.1
YNLFYELNLVLIP	6.137 ± 0.05
YNLNCHLFSAWTFNYKIAFL	5.958 ± 0.043
YNMMLSVWDSYVLLVECVME	-0.801 ± 0.31
YNPNCPCICS	6.823 ± 0.026
YNQTVCDFLGKRLWGDVWRS	0.26 ± 0.36
YNVDDCSHRDRFIDNRDSEC	inactive
YNVDTVYLRGSLLRSYDWCF	-2.32 ± 1.1
YNWHMSHFYDLGP	4.99 ± 0.099
YNYASYLVHIALLFLSYIRR	0.236 ± 1.1
YNYLLLSMVPSSILSRSYVQ	-0.161 ± 1.1
YPCKSDF	-1.66 ± 0.45
YPQGVGSDLTS	0.953 ± 0.19
YPVTYQLCILICTGYADKWR	-1.26 ± 0.64
YQIAWI	-0.719 ± 0.46
YQLIGFTKVIRFHSVELIEP	inactive
YRAGLGALEGSVLHAGKW	inactive
YRCVDYKGIEYLLYREMLTT	3.93 ± 0.046

Substance	amyloid nucleation score
YRDVQNN	inactive
YRGINGTTGFQLWAPA	inactive
YRGLTSLYLFNQV	-0.08 ± 0.23
YRKHRLLH	-0.893 ± 0.76
YRNVPRRMYRCVGISWS	1.13 ± 0.11
YRPQATGLGSRGRR	0.81 ± 0.43
YRYAASVPKCNTGSRDVAQT	0.942 ± 0.35
YSCQFFCSVLLCLYVSHITN	inactive
YSDKHM	-1.27 ± 0.64
YSGDRDTVLYHCTRVGAESV	0.109 ± 0.63
YSGKCMEDVRGQMVGGLELV	0.405 ± 0.22
YSHGEVCCWSCVMWVKHFMR	1.47 ± 0.33
YSKAAIFMESHFLASGNHKA	4.67 ± 0.1
YSKNWYWCTDYARANTLYHG	-1.14 ± 1.1
YSLLLTIKPTTSWRCVSDGH	2.27 ± 0.23
YSLNWVQWEWELVCKWQGSL	0.143 ± 0.35
YSNANGRTRVWGPRERKKDQ	-0.004 ± 0.65
YSSYYHNFFRW	-0.277 ± 0.28
YSVLFL	-0.722 ± 0.54
YSWKFFCRWNEQD	1.04 ± 0.59
YSYTTVFNIASNTTNELATC	-0.375 ± 0.2
YTCRYRFTLNQTSSRRFSFW	1.35 ± 0.13
YTGFWFIFTKGHTE	inactive
YTPHYLQCRLFCIPLRLNRS	-1.09 ± 0.49
YTVLWRCTFTKARVFGCVSL	0.414 ± 0.51

Substance	amyloid nucleation score
YVCVYTDF	-1.38 ± 0.55
YVDLKVACILYPYFSGTRQH	4.96 ± 0.078
YVDWAG	-1.56 ± 0.62
YVGSFVGSGIVLLNNSAVRH	3.4 ± 0.14
YVIQMYLSEATGCYVFTYFF	0.368 ± 0.33
YVKVRWCGTSPCNEFLRSSY	0.429 ± 0.66
YVLKVVIRRLRRSCVSCTWH	-0.109 ± 0.25
YVSECVANA	inactive
YVSWCCGRFISYPVC	0.321 ± 0.19
YVTPKDDSDAVWGLTLMEMS	0.292 ± 0.39
YVVGDMTFWS	-0.297 ± 1.1
YVVYMVFGR	6.323 ± 0.055
YVYTLGI	-0.337 ± 1.1
YWEDNWAPNIQDLWQRRRCG	0.743 ± 0.81
YWTPISFVY	-1.09 ± 0.64
YWTPYCIVIH	-0.965 ± 0.78
YYCFHLKEYCRWRSANPHFK	-0.073 ± 1
YYEIIWYTFQEKLSGCSSCS	-2.02 ± 0.75
YYGALWRYAGMSG	-0.472 ± 0.3
YYGRSSLRNRMDVSDVQYPG	-0.67 ± 1.1
YYSLY	-0.904 ± 0.36
YYSMGSTCGILDQDSLNVDQ	-1.34 ± 0.39
